Measured values from the nanobody polyreactivity screen of Harvey et al. (2022).

Assay: yeast display, Sf9 membrane polyspecificity reagent, FACS + sequencing; frameworks hold sequencing errors
Method in brief: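 In a synthetic yeast display library (Saccharomyces cerevisiae BJ5465), nanobody expression was induced with galactose for 36–48 hours. FACS gates were set low and high (top ~1%) using anti-HA fluorescence for expression and streptavidin fluorescence for binding of the Sf9 membrane reagent. Each polyreactivity label is drawn from the gate of origin.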

Sequence	polyreactivity (PSR sort gate)
QVQLVESGGGLVQAGGSLPLSCASYGSIIVGNVMGWYRQAPGKESELVAAMTSSGTSTFYADSVKGRFTNSRDIAKNTVYLQMNSLKPEVTAVYYCAVDLYWSYFNGSLGYRYYFWGQGTQLTVSS	high polyreactivity
QVQLVESGGGLVQAGGSLPLSGAPSGSTFGYNTMGWSRQAPGKESELVAAITSGGRTYYADSVKGRFTISRDNAKNTVYLQRNSLKPEDTAVYYCAAYYWWGYPENDYWVQGTQVTVSS	high polyreactivity
QVQLVESGGGLVQAGGSLPLSSAASGLIFSWYAMGWYRQAPAKDSELVAAIDQSGDSTYYADSVKGRFTISRDNAKNTVYLQMNSLKPEDTAVYYCAAQSYDYWYDYDYWGQGTQVTVSS	high polyreactivity
QVQLVESGGGLVQAGGSLPLTCAASGLTFYDYPMGWYRKATVKERELVAAIRRSGTRTYYADSVKGRFTISRDYAKNTVYLQMNSLKPEDTAVYYCNTVRRLKRYSSYGHDYWGQGTQVTVSS	high polyreactivity
QVQLVESGGGLVQAGGSLRFSCAAPGTIFPRYAMGWYRQAPGKERELVAAISRSGGSTYYADSVKGRFTISRDNAKNTVYLQMNSLKPEDTAVYYCATDKVSHRRYDYWGQGTQVTVSS	high polyreactivity
QVQLVESGGGLVQAGGSLRFSCAASGGIFWHYTMGWYRQAHGKERELVAAITRRGGSTYYADSVKGRFTISRDNAKNTVYLQINSLKPEDTAVYYCAADFLPQSYNWYDYWGQGTQVTVAS	low polyreactivity
QVQLVESGGGLVQAGGSLRFSCAASGGTFGYNAMGWYRQAPGKDRELVARISWRGASTYYADSVKGRFTLSRDNAKNTVYLQMNSLKPEDTAVYYCAAYSFNYQPAYAYRGEDYWGQGTQVTVSS	low polyreactivity
QVQLVESGGGLVQAGGSLRFSCAASGITFTEYAMGWYTQAPGTERELVAAITGSGTSTYYADSVKGRFTISRDNAKNTVYLHMNSLKPEDTAVYYCAARTRGTAYNYWGQGTQVTVSS	high polyreactivity
QVQLVESGGGLVQAGGSLRFSCAASGITFVDYAMGWYRQAPGKEREFVAGISESGGSTYYADSVKGRFTISRDNAKNTVYLQMNSLKPEDTAVYYCAADPYVDSYDSWGQGTQVTVSS	low polyreactivity
QVQLVESGGGLVQAGGSLRFSCAASGLIFGSYTMGWSRQAPGKERELVAGISRGGGITYYADSVKGRFTISRDNAKNTVYLQMNSLKPEDTAVYYCAAGYFSYSPYGSYKFGYWGQGTQVTVSS	high polyreactivity
QVQLVESGGGLVQAGGSLRFSCAASGRIFRRYAMGWYRQAPGKERELVAAITQSGDSTYYADSVKGRFTISRDNAKNTVYLQMNSLKPEDTAVYYCAAAGGPYRYNYWGQGTQVTVSS	high polyreactivity
QVQLVESGGGLVQAGGSLRFSCAASGRIFSGNGMGWYRQAPGKEREFVAAIRFSSGSTYYADSVKGRFTISRDNAKNTVYLQMNSLKPEDTAVYYCARPSIPRRYDYWGQGTQVTVSS	high polyreactivity
QVQLVESGGGLVQAGGSLRFSCAASGRIFTPYAMGWYRQAPGKERELVAVIRDGSTYYADSVKGRFTISRDNAKNTVYLQMNSLKPEDTAVYYCRYDIWVWWSGAYDYWGQGTQVTVSS	low polyreactivity
QVQLVESGGGLVQAGGSLRFSCAASGRIFYLNAMGWYRQAPGKERELVAAISRSGGRTYYADSEKGRFTISRDNAKHTVYLQMNSLKPEDTAVYYCAADTAGATPERNYWGQGPQVTVSS	high polyreactivity
QVQLVESGGGLVQAGGSLRFSCAASGRISPSYAMGWNRKAPGKERELVAAIYRGGSTSYADSVKGRFTISRDNAKNNVYLQMNSLKPEDTAVYYCATRGPRYRYYYWGQGTQVTVSS	high polyreactivity
QVQLVESGGGLVQAGGSLRFSCAASGRTFYRYAMGWYRQAPGKERVLVAAISGSGGSTYYADSVKGRFTISRDNAKNTVYLQMNSLKPEDTAVYYCAADGPSHHGDDDYWGQGTQVTVSS	low polyreactivity
QVQLVESGGGLVQAGGSLRFSCAASGSICGGYAMGWYRQAPGKERELVASITKSGDSTYADSVKGRFTISRDNAKNTVYLQMNSLKPEDTAVYYSAADSTFGNFDYWGQGTQVTVSS	low polyreactivity
QVQLVESGGGLVQAGGSLRFSCAASGSTFQYYAMGWYRQAPGKEREFVAAIRSSGGTTYYADSVKGRFTLSRDNAKNTVYLQMNSLKPEDTAVYYCAATTKYNGRRSYFKFDYWGQGTQVTVSS	high polyreactivity
QVQLVESGGGLVQAGGSLRFSCAASGSTFTAYVMGWYRQAPGKERELVAAISRSGGRTYYADSVKGRFTISRDNAKKTVYLQMNSLKPEDTAVYYCAARSGPLAYDYWGQGTQVTVSS	high polyreactivity
QVQLVESGGGLVQAGGSLRFSCAASGSTFTVYAMGWYRQAPGQERELVAAITNGGRTYYADSVKGRFTISRDNAKNTVYLQMNSLKPEDTAVYYCAADVYYDDYLYDYWGQGTQVTVSS	high polyreactivity
QVQLVESGGGLVQAGGSLRFSCAASGSTISSNVMGWYRQAPGKERELVAAITKTGGRTYYADSVKGRFTISRDNAKNTVYLQMNSLKPEDTAFYYCAAKSKPRGTSSDYYYWGQGTQVTVSS	high polyreactivity
